Source: patent US20220363757A1 (SYMPHOGEN A S, published 2022)

Tests used:
Assay in all cases: SPR, Fab over captured mutant LAG-3-Fc;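 also: fc fusion variants captured on anti-human IgG Fc sensor, Fab injected with association then dissociation phases, KD obtained from Langmuir one-to-one fit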
[1] = biological target: T1, human LAG-3 domain 1-2 Fc fusion, point mutation #39 W92A (human, UniProt P18627 23-266)
T1 construct: not shown: human IgG1 Fc, AA P101-K330
T1 sequence: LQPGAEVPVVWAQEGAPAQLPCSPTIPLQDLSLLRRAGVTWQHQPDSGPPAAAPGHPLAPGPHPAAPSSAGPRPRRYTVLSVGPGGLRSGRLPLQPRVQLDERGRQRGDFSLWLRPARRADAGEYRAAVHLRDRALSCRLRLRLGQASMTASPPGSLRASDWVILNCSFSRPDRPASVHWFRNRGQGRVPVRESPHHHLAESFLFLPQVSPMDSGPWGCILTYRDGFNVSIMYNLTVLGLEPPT

[2] = biological target: T2, human LAG-3 domain 1-2 Fc fusion, point mutation #4 S45A (human, UniProt P18627 23-266)
T2 construct: not shown: human IgG1 Fc, AA P101-K330
T2 sequence: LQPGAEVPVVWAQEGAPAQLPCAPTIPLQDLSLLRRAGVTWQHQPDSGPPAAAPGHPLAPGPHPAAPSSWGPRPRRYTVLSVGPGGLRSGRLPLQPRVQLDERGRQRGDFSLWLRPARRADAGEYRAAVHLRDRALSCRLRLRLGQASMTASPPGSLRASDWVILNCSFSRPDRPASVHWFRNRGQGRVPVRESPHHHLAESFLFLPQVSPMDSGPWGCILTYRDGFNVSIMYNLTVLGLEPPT

[3] = biological target: T3, human LAG-3 domain 1-2 Fc fusion, point mutation #31 P84A (human, UniProt P18627 23-266)
T3 construct: not shown: human IgG1 Fc, AA P101-K330
T3 sequence: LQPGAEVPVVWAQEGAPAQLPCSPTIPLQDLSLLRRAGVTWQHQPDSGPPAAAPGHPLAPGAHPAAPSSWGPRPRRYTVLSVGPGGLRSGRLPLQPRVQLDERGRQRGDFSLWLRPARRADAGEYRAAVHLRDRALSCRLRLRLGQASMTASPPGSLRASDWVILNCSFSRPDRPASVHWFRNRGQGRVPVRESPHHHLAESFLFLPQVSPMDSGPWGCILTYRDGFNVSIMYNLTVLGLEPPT

[4] = biological target: T4, human LAG-3 domain 1-2 Fc fusion, point mutation #21 A74S (human, UniProt P18627 23-266)
T4 construct: not shown: human IgG1 Fc, AA P101-K330
T4 sequence: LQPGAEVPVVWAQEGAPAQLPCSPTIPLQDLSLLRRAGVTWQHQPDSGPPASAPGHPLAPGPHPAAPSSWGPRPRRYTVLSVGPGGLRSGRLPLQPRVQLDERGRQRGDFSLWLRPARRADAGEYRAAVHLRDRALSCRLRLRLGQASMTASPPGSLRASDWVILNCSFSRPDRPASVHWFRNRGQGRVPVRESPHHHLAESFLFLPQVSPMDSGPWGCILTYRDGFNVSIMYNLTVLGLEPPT

[5] = biological target: T5, human LAG-3 domain 1-2 Fc fusion, point mutation #3 P43A (human, UniProt P18627 23-266)
T5 construct: not shown: human IgG1 Fc, AA P101-K330
T5 sequence: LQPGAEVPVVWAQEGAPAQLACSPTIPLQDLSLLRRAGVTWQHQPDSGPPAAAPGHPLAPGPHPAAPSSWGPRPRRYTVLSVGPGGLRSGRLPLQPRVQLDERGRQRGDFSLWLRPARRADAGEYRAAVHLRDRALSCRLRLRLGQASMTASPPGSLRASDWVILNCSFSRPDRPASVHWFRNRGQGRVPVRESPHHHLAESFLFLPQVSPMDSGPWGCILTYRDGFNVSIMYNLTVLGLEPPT

[6] = biological target: T6, human LAG-3 domain 1-2 Fc fusion, point mutation #12 R57A (human, UniProt P18627 23-266)
T6 construct: not shown: human IgG1 Fc, AA P101-K330
T6 sequence: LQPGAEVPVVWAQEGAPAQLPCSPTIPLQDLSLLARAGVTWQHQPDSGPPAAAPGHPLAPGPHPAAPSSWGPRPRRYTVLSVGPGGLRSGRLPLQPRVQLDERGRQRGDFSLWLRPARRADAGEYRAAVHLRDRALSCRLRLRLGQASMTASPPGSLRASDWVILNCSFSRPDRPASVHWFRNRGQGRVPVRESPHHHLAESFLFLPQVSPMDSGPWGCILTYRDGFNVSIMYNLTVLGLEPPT

[7] = biological target: T7, human LAG-3 domain 1-2 Fc fusion, point mutation #66 G126A (human, UniProt P18627 23-266)
T7 construct: not shown: human IgG1 Fc, AA P101-K330
T7 sequence: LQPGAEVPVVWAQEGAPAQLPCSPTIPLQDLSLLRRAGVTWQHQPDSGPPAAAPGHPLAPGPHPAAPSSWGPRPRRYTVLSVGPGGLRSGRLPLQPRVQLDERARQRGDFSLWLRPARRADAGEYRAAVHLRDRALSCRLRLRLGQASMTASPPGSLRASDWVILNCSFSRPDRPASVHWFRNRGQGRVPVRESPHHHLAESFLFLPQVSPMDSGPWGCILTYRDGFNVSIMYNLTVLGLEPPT

[8] = biological target: T8, human LAG-3 domain 1-2 Fc fusion, point mutation #36 P89A (human, UniProt P18627 23-266)
T8 construct: not shown: human IgG1 Fc, AA P101-K330
T8 sequence: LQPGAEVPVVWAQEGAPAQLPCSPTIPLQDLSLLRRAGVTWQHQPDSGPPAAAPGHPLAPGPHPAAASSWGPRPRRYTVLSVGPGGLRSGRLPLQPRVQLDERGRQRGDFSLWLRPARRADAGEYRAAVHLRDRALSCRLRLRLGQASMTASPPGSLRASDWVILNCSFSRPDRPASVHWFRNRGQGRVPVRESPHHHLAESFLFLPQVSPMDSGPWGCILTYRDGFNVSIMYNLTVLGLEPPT

[9] = biological target: T9, human LAG-3 domain 1-2 Fc fusion, point mutation #51 G107A (human, UniProt P18627 23-266)
T9 construct: not shown: human IgG1 Fc, AA P101-K330
T9 sequence: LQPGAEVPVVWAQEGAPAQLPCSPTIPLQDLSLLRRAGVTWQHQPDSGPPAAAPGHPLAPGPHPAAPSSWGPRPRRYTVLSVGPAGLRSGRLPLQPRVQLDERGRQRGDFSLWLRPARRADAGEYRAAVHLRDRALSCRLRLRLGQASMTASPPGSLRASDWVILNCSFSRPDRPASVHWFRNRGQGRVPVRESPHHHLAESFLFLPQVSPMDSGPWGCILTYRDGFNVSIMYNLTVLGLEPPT

B1: Fab fragment of antibody 15011 (Fab, V domains shown, not shown: a dimerising Fc or GST)
VH: EVQLLESGGGLVQPGGSLRLSCAASGFDFRSYAMMWVRQAPGKGLEWVGGINGEVGGSNTYYAPAVKGRATISRDNSKNTLYLQMNSLRAEDTAVYYCVKGAGACGICNDDIDAWGQGTLVTVSS
VL: SYELTQDPAVSVALGQTVRITCSGAGSYAGSYYYGWHQQKPGQAPVTVIYDNDKRPSNIPDRFSGSSSGNTASLTITGAQAEDEADYYCGSTNDNDDGGLFGSGTKVTVLG
notes: monomeric Fab made by GingisKHAN digestion of the IgG1
B1 was tested, and the “KD mutant/KD wild type” value [1] was 1.1 fold, the “KD mutant/KD wild type” value [2] was 0.7 fold and the “KD mutant/KD wild type” value [3] was 1 fold. The “KD mutant/KD wild type” value [4] was 0.8 fold, the “KD mutant/KD wild type” value [5] was 0.6 fold and the “KD mutant/KD wild type” value [6] was 0.7 fold. For the same binder, the “KD mutant/KD wild type” value [7] was 0.9 fold, the “KD mutant/KD wild type” value [8] was 0.9 fold and the “KD mutant/KD wild type” value [9] was 5.7 fold.

B2: Fab fragment of antibody 15532 (Fab, V domains shown, not shown: a dimerising Fc or GST)
VH: QVQLQQWGAGLLRPSETLSLTCAVYGESFSGYYWNWIRQPPGKGLEWIGEINHSGSTNYNPSLKSRVTISVDTSKTQFSLKLSSVTAADTAVYYCARGWDLLDWNDYWNEYWGQGTLVTVSS
VL: EIVLTQSPATLSLSPGERATLSCRASQSVSSYLAWYQQKPGQAPRLLIYDASNRATGIPARFSGSGSGTDFTLTISSLEPEDFAVYYCQQRSNWPLTFGGGTKVEIKR
notes: as for B1
For B2, the binding result [1] was “no binding (tested: 300 nM)”, the “KD mutant/KD wild type” value [2] was 1.7 fold and the “KD mutant/KD wild type” value [3] was 0.5 fold. For the same binder, the “KD mutant/KD wild type” value [4] was 1 fold, the “KD mutant/KD wild type” value [5] was 3.8 fold and the “KD mutant/KD wild type” value [6] was 1.1 fold. For the same binder, the “KD mutant/KD wild type” value [7] was 0.9 fold, the “KD mutant/KD wild type” value [8] was 14.2 fold and the “KD mutant/KD wild type” value [9] was 2.1 fold.

B3: Fab fragment of antibody 15431 (Fab, V domains shown, not shown: a dimerising Fc or GST)
VH: QVQLQQSGPGLVKPSQTLSLTCAISGDSVSSNSAAWNWIRQSPSRGLEWLGRTYYRSKWYNDYAVSVKSRITINPDTSKNQFSLQLNSVTPEDTAVYYCARDDDWNDFDYWGQGTLVTVSS
VL: EIVLTQSPATLSLSPGERATLSCRASQSVSSYLAWYQQKPGQAPRLLIYDASNRATGIPARFSGSGSGTDFTLTISSLEPEDFAVYYCQQRSNWPLTFGGGTKVEIKR
notes: as for B1
B3 was tested, and the “KD mutant/KD wild type” value [1] was 3.6 fold, the “KD mutant/KD wild type” value [2] was 0.4 fold and the “KD mutant/KD wild type” value [3] was 1.1 fold. For the same binder, the “KD mutant/KD wild type” value [4] was 0.8 fold, the binding result [5] was “no binding (tested: 300 nM)” and the “KD mutant/KD wild type” value [6] was 0.6 fold. The “KD mutant/KD wild type” value [7] was 0.9 fold, the “KD mutant/KD wild type” value [8] was 0.8 fold and the binding result [9] was “no binding (tested: 300 nM)”.

B4: Fab fragment of antibody 15572 (Fab, V domains shown, not shown: a dimerising Fc or GST)
VH: QLQLQESGPGLVKPSETLSLTCTVSGDSISSSSYYWGWIRQPPGKGLEWIGSIFYSGNTYYNPSLKSRVTISVDTSKNQFSLKLSSVTAADTAVYYCAREDDFLTDYYGAFDIWGQGTMVTVSS
VL: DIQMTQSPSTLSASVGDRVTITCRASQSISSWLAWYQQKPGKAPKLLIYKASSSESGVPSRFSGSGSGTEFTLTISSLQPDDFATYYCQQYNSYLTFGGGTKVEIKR
notes: as for B1
With B4 the “KD mutant/KD wild type” value [1] was 1 fold, the “KD mutant/KD wild type” value [2] was 0.6 fold and the “KD mutant/KD wild type” value [3] was 0.9 fold. The “KD mutant/KD wild type” value [4] was 0.7 fold, the binding result [5] was “no binding (tested: 300 nM)” and the “KD mutant/KD wild type” value [6] was 0.8 fold. For the same binder, the “KD mutant/KD wild type” value [7] was 0.9 fold, the “KD mutant/KD wild type” value [8] was 0.8 fold and the binding result [9] was “no binding (tested: 300 nM)”.
